Laboratory results reported in US20240294613A1 (BROAD INSTITUTE, published 2024).

B1: BG7-15 (antibody, V domains shown)
VH: QVQLVQSGAEVKKPGASVKVSCKASGYTFTSYAISWVRQAPGQGLEWMGWVSAYNGNTNYAQKLQGRVTMTTDTSTNTAYMELRSLRSDDTAIYYCAIPYSSVTFDCWGQGTLVTVSS
VL: EIVLTQSPGTLSLSPGERATLSCRASQSVSGTFLAWYQQKPGQAPRLLISGASSRATGIPDRFSGSGSGTDFTLTISRLEPEDFAVYYCQQYGSSRPTFGQGTKLEIKR
B2: BG7-18 (antibody, V domains shown)
VH: EVQLMESGGGLIQPGGSLRLSCAASGFIVSSNYMSWVRQAPGKGLEWVSVIYSGGGTDYADSVKGRFTISRDNSKNTLFLQMNSLRAEDTAVYYCARGAAMVKELFDYWGQGTQVTVSS
VL: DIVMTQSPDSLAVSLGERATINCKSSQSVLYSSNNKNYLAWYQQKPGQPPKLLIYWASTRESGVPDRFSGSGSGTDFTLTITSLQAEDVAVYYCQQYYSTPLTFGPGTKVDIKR
B3: BG10-8 dimeric IgA (antibody, V domains shown)
VH: QMELVESGGGLVKPGGSLRLSCASSGFSLGDYYMTWIRQAPGKGLEWVSYISRSDGKTFYADSVKGRFTLSTDDGKKSLYLQMNSLRAEDTAVYYCVRGEGGPHDAFDIWGQGTMVTVSS
VL: TSYVLTQPPSVSVAPGQTARISCGGNNIESKTVHWYQQKPGQAPILVVYDDNDRPSGIPERFSGSNSGNTATLSISRAEAGDEADYYCQVWDSSRDLRVFGGGTKLSVLG
B4: BG1-15 dimeric IgA (antibody, V domains shown)
VH: DVQLVESGGVVVQPGGSLRLACAASGFTFDDYAMHWVRQAPGKGLEWVSLITRDGGSTHYADSVKGRFTISRDNSKNSLYLQMNSLRLEDTAFYYCAKDGRRDGYNHALDNWGQGTLVTVSS
VL: DIQMTQSPSTLSASVGDRVTITCRASQSISSWLAWYQQKPGKAPKLLINRASSLESGVPSRFSGSGSGTEFTLTISSLQPDDFATYYCQQYSSYPTFGQGTKVEIKR

Key:
[1] = molecular target: SARS-COV-2 full-length S (containing G at position 614) (SARS-COV-2, UniProt P0DTC2 14-1273); assay: cell-based or functional assay
[2] = molecular target: SARS-COV-2 full-length S (containing G at position 614) (SARS-COV-2, UniProt P0DTC2 14-1273); assay: cell-based or functional assay; remark: listed apart in the source

| Binder | PV IC50 [1] [µg/mL] | IC50, SARS-COV-2 pseudovirus neutralization [2] [µg/mL] | molar neutralization ratio (MNR) [2] |
| --- | --- | --- | --- |
| B1 | 0.016 |  |  |
| B2 | 0.083 |  |  |
| B3 |  | 0.026 | 10.9 |
| B4 |  | 6.5 |  |
